Reference: publication PMC11701221, “WhiA transcription factor provides feedback loop between translation and energy production in a genome-reduced bacterium” (Frontiers in Microbiology, 2024)
Where a chain is given by its changes, count along the chain named.

Experiments:
Mgal-WhiA [1] = molecular target: T1, Mgal-WhiA (Mycoplasmoides gallisepticum, UniProt A0A0F6CKV5); experiment: microscale thermophoresis, Cy5-labelled protein, Hill fit; type: binding
T1 construct: E. coli BL21-Gold (DE3); monomer without DNA; Cy5 NHS-ester labelled for ATP MST
T1 sequence (A0A0F6CKV5 1-295): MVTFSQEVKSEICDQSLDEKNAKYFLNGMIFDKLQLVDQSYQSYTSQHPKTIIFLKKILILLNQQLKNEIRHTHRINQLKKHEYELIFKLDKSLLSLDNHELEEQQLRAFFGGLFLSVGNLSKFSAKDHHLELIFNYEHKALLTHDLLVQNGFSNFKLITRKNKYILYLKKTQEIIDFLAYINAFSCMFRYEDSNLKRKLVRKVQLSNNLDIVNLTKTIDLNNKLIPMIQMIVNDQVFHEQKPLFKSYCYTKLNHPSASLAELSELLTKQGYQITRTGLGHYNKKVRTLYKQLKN

Mgal-WhiA Lys-170 = Mgal-WhiA Lys-170 (Mycoplasma gallisepticum S6, UniProt A0A0F6CKV5 1-295, K171G); experiment: EMSA; dimeric complex favoured; EMSA: 20 mM carbonate pH 9.8, 6% glycerol, 37 C 10 min, gel at 10 C; MST: PBS (10 mM Na phosphate pH 7.4, 140 mM NaCl, 3 mM KCl), 0.05% Tween-20, 50 mM imidazole, 50 nM duplex, 20 C; settings: protein: recombinant; label: 5' FAM (EMSA) or HEX (MST) on strand 1; blunt
Mgal-WhiA [2] = molecular target: T2, Mgal-WhiA (Mycoplasma gallisepticum S6, UniProt A0A0F6CKV5 1-295); experiment: EMSA; 1 mM ATP; monomer complex; EMSA: 20 mM carbonate pH 9.8, 6% glycerol, 37 C 10 min, gel at 10 C; MST: PBS (10 mM Na phosphate pH 7.4, 140 mM NaCl, 3 mM KCl), 0.05% Tween-20, 50 mM imidazole, 50 nM duplex, 20 C; settings: protein: recombinant; label: 5' FAM (EMSA) or HEX (MST) on strand 1; blunt
Mgal-WhiA [3] = molecular target: T2, Mgal-WhiA; experiment: MST; 1 mM ATP; n = 1; multistep curve; EMSA: 20 mM carbonate pH 9.8, 6% glycerol, 37 C 10 min, gel at 10 C; MST: PBS (10 mM Na phosphate pH 7.4, 140 mM NaCl, 3 mM KCl), 0.05% Tween-20, 50 mM imidazole, 50 nM duplex, 20 C; settings: protein: recombinant; label: 5' FAM (EMSA) or HEX (MST) on strand 1; blunt
Mgal-WhiA [4] = molecular target: T2, Mgal-WhiA; experiment: MST; no ATP; Hill n = 1.8 ± 0.2; EMSA: 20 mM carbonate pH 9.8, 6% glycerol, 37 C 10 min, gel at 10 C; MST: PBS (10 mM Na phosphate pH 7.4, 140 mM NaCl, 3 mM KCl), 0.05% Tween-20, 50 mM imidazole, 50 nM duplex, 20 C; settings: protein: recombinant; label: 5' FAM (EMSA) or HEX (MST) on strand 1; blunt
Mgal-WhiA Lys-216 = Mgal-WhiA Lys-216 (Mycoplasma gallisepticum S6, UniProt A0A0F6CKV5 1-295, K217G); experiment: MST; EMSA: 20 mM carbonate pH 9.8, 6% glycerol, 37 C 10 min, gel at 10 C; MST: PBS (10 mM Na phosphate pH 7.4, 140 mM NaCl, 3 mM KCl), 0.05% Tween-20, 50 mM imidazole, 50 nM duplex, 20 C; settings: protein: recombinant; label: 5' FAM (EMSA) or HEX (MST) on strand 1; blunt
Mgal-WhiA Ser-258 = Mgal-WhiA Ser-258 (Mycoplasma gallisepticum S6, UniProt A0A0F6CKV5 1-295, S259G); experiment: as above; settings: protein: recombinant; label: 5' FAM (EMSA) or HEX (MST) on strand 1; blunt
Mgal-WhiA [5] = molecular target: T2, Mgal-WhiA; experiment: EMSA; no ATP; total binding; EMSA: 20 mM carbonate pH 9.8, 6% glycerol, 37 C 10 min, gel at 10 C; MST: PBS (10 mM Na phosphate pH 7.4, 140 mM NaCl, 3 mM KCl), 0.05% Tween-20, 50 mM imidazole, 50 nM duplex, 20 C; settings: protein: recombinant, blunt
Mgal-WhiA [6] = molecular target: T2, Mgal-WhiA; experiment: EMSA; no ATP; monomer complex; EMSA: 20 mM carbonate pH 9.8, 6% glycerol, 37 C 10 min, gel at 10 C; MST: PBS (10 mM Na phosphate pH 7.4, 140 mM NaCl, 3 mM KCl), 0.05% Tween-20, 50 mM imidazole, 50 nM duplex, 20 C; settings: protein: recombinant; label: 5' FAM (EMSA) or HEX (MST) on strand 1; blunt
Mgal-WhiA [7] = molecular target: T2, Mgal-WhiA; experiment: EMSA; 1 mM ATP; total binding; unit not printed (nM implied); EMSA: 20 mM carbonate pH 9.8, 6% glycerol, 37 C 10 min, gel at 10 C; MST: PBS (10 mM Na phosphate pH 7.4, 140 mM NaCl, 3 mM KCl), 0.05% Tween-20, 50 mM imidazole, 50 nM duplex, 20 C; settings: protein: recombinant, blunt
Mgal-WhiA [8] = molecular target: T2, Mgal-WhiA; experiment: EMSA; monomer complex; printed as without ATP, order probably swapped (1 mM ATP likely); EMSA: 20 mM carbonate pH 9.8, 6% glycerol, 37 C 10 min, gel at 10 C; MST: PBS (10 mM Na phosphate pH 7.4, 140 mM NaCl, 3 mM KCl), 0.05% Tween-20, 50 mM imidazole, 50 nM duplex, 20 C; settings: protein: recombinant; label: 5' FAM on strand 1; blunt
Mgal-WhiA [9] = molecular target: T2, Mgal-WhiA; experiment: EMSA; monomer complex; printed as with ATP, order probably swapped (no ATP likely); EMSA: 20 mM carbonate pH 9.8, 6% glycerol, 37 C 10 min, gel at 10 C; MST: PBS (10 mM Na phosphate pH 7.4, 140 mM NaCl, 3 mM KCl), 0.05% Tween-20, 50 mM imidazole, 50 nM duplex, 20 C; settings: protein: recombinant; label: 5' FAM on strand 1; blunt
Mgal-WhiA [10] = molecular target: T2, Mgal-WhiA; experiment: FRET; with Q3 core duplex; strong quenching; EMSA: 20 mM carbonate pH 9.8, 6% glycerol, 37 C 10 min, gel at 10 C; MST: PBS (10 mM Na phosphate pH 7.4, 140 mM NaCl, 3 mM KCl), 0.05% Tween-20, 50 mM imidazole, 50 nM duplex, 20 C; settings: protein: recombinant; label: 5' 6-FAM on strand 1; blunt
Mgal-WhiA [11] = molecular target: T2, Mgal-WhiA; experiment: MST; 1 mM ATP; multistep curve, conflicts with EMSA; EMSA: 20 mM carbonate pH 9.8, 6% glycerol, 37 C 10 min, gel at 10 C; MST: PBS (10 mM Na phosphate pH 7.4, 140 mM NaCl, 3 mM KCl), 0.05% Tween-20, 50 mM imidazole, 50 nM duplex, 20 C; settings: protein: recombinant; label: 5' FAM (EMSA) or HEX (MST) on strand 1; blunt
[12] = label: 5' FAM (EMSA) or HEX (MST) on strand 1

## Nc1ncnc2c1ncn2[C@@H]1O[C@H](COP(=O)(O)OP(=O)(O)OP(=O)(O)O)[C@@H](O)[C@H]1O [ATP]
Mgal-WhiA [1]
  Kd: 5000 ± 100 µM

B1: rpsJ WT (dsDNA)
DNA 1: AAAGATTGCTGATACACCAAAAACCGTTGTCAAGTATCAG
DNA 2: CTGATACTTGACAACGGTTTTTGGTGTATCAGCAATCTTT
Mgal-WhiA Lys-170
  binding result: binds
Mgal-WhiA [2]
  Kd: 0.24 ± 0.07 µM
Mgal-WhiA [3]
  Kd: 0.088 ± 0.012 µM
Mgal-WhiA [4]
  Kd: 0.7 ± 0.1 µM
Mgal-WhiA Lys-216
  Kd: 1.7 ± 0.1 µM
Mgal-WhiA Ser-258
  Kd: 2.6 ± 0.2 µM
Mgal-WhiA [5]; [12]
  Kd: 0.7 ± 0.08 µM
Mgal-WhiA [6]
  Kd: 0.61 ± 0.1 µM
Mgal-WhiA [7]; [12]
  Kd: 0.68 ± 0.09 µM

B2: Mut1 (dsDNA)
DNA 1: B1 DNA 1 with G26A, T27G, T28A, G29C
DNA 2: B1 DNA 2 with C12G, A13T, A14C, C15T
Mgal-WhiA [8]
  Kd: 0.29 ± 0.18 µM
Mgal-WhiA [9]
  Kd: 0.85 ± 0.13 µM
Mgal-WhiA [5]; label: 5' FAM on strand 1
  Kd: 0.75 ± 0.03 µM
Mgal-WhiA [7]; label: 5' FAM on strand 1
  Kd: 0.43 ± 0.09 µM

B3: WhiA-F1 (aux half-site) (dsDNA)
DNA 1: AACCGTTGTCAAGTATC
DNA 2: GATACTTGACAACGGTT
Mgal-WhiA [10]
  binding result: binds

B4: Negative control (plsC promoter) (dsDNA)
DNA 1: AGCGATAAGTTTTACGAATTAAGTCGTTTATTATATAATA
DNA 2: TATTATATAATAAACGACTTAATTCGTAAAACTTATCGCT
Mgal-WhiA [11]
  Kd: 0.12 ± 0.05 µM
